What all share (format): physicochemical
The nature of data set [1]: Thermal dissociation by tryptophan fluorescence. The source says: The thermal dissociation of XCL was followed by measuring the intrinsic fluorescence of the tryptophans. Each monomer of XCL contains 3 tryptophan residues: one in a hydrophobic cavity (Trp 77) and two located on the same interface between two monomers (Trp 27 and Trp 35). The inventors used these latter two Trp as probes for the quaternary structure of XCL, by taking advantage of their position in the structure of the tetramer. In order to increase the sensitivity of the measurement, the ratio of the fluorescence intensities 346 nm/330 nm was measured according to the temperature (FIG. 8).

The nature of data set [2]: Balanced FRET, exchange of monomers. The conditions noted are these: 1 h incubation, pH 8.5. The method, then:
Fluorescence energy transfer was used to reveal the exchange of the XCL monomers. The exchange reaction is initiated by mixing the same volume of XCL-RITC (1 μM or only the buffer as a reference) and of XCL-FITC (1 μM) at 25° C. in 50 mM of phosphate buffer, 100 mM NaCl, pH 8.5. After one hour of incubation, the emission spectrum of the sample excited at 490 nm is recorded by spectrofluorimetry (Photon Technology International QM-4). The same experiments were carried out with A38C-RITC and A38C-FITC.
The oligomerization balance of the XCL protein was characterised by the measurement of the appearance of resonance energy transfer of the Förster type (FRET) between two populations of XCL labelled separately either with FITC (Fluorescein IsoThioCyanate) or with RITC (Rhodamine IsoThioCyanate).
In this same figure, is also shown the spectrum obtained by mixing the labelled protein, either by the donor or by the acceptor (dotted line curve). This spectrum was deconvoluted, which gives the spectra shown as a dotted line in FIG. 2A.
For the purposes of comparison, the same experiment was carried out with the variant A38C. This variant is covalently bonded by two additional disulphide bridges. A perfectly superimposable spectrum was obtained after mixing donor and acceptor labelled proteins and incubation of this mixture for 1 h at ambient temperature (dotted lines of FIG. 3B).

Data set [3] can be described thus: FRET on dilution, tetramer equilibrium. How it is done:
The mixture of FITC-XCL and RITC-XCL was diluted to various concentrations and incubated for 1 hour at ambient temperature. The fluorescence spectrum was recorded with a light excitation at 468 nm. In order to substantially determine the decrease in the energy transfer and normalise the intensity of the fluorescence, a ratio I580/I520 was calculated for each concentration and taken according to the concentration in XCL (FIG. 4). […] Evidently, the titration curve is not complete as long as the saturation is not reached for the points with the strongest concentration. Due to the solubility limit of XCL and of the labelling protocol, the concentrations in protein cannot exceed 10 μM in this experiment.

Data set [4] is described as follows: Size exclusion chromatography at variable concentration, tetramer equilibrium. The method, then:
The size exclusion chromatography experiments were carried out on a GE-Healthcare Superose 12 PC 3.2/30 column. The columns are pre-balanced in the buffer tested, namely phosphate buffer 50 mM, 100 mM NaCl, pH7.2 or pH 4.4 in the absence or in the presence of 0.003% of SDS. The flow rate is 0.5 mL/min. The BSA and the RNase A are used as a size marker.
In order to confirm the data obtained in FRET, the displacement of the balance was evaluated by gel exclusion chromatography. Bovine Serum Albumin (BSA) and ribonuclease A were used to calibrate the column. Elution volumes of 12.6 ml and of 15.5 ml were obtained respectively. At a strong concentration (here 30 μM), XCL has an elution volume of 13.2 ml close to the elution volume of BSA as expected for tetrameric species. […] However, it was shown by digital simulation that according to the association rate, the rate of dissociation, the flow rate and separation characteristics of the column, two populations of molecules that are exchanging could lead to a single peak via size exclusion chromatography (Yu et al., (2006)). The inventors carried out several injections by using variable concentrations of XCL and observed that indeed a single peak was obtained. However this peak is displaced to longer elution volumes as the concentration decreases, indicating a smaller molecular weight.
On the technique in general: In gel filtration, larger molecules generally elute earlier.

Data set [5] can be described thus: SDS-PAGE of tetramer and disulphide bridge stability. The conditions noted are these: 2% of SDS, not heated before deposit. How it is done:
The clone A38C was obtained by directed mutagenesis by using the XCL plasmid as a matrix and the protein produced and purified by using the same protocol as that used to produce XCL (Trigueros et al. (2003)). A yield of 25 mg of purified protein per litre of culture was obtained. The last part of the protocol consisted in a step of oxidation for 12 hours in the presence of 10 mM of oxidised glutathione. This step is required in order to produce disulphide bridges between the monomers. The forming of these covalent bonds was verified by SDS-PAGE. Two SDS-PAGE were prepared. Beta-mercaptoethanol was added to the samples in the first gel while beta-mercaptoethanol was not added to the second gel. When XCL is heated to 95° C. 5 min before the deposit, a single band is observed with a molecular weight slightly greater than 20 kDa on the two gels. This band corresponds to the species in monomer form.
A variant T12C was produced in the same manner as A38C by directed mutagenesis by using the XCL plasmid as a matrix. By using the same protocol, 10 mg of protein per litre of culture were produced. The oxidation rate of the variant T12C was sought by using the same method by SDS-PAGE as for A38C. These rates were compared with those obtained with the variant A38C. Several oxidative conditions were tested with different concentrations of reduced glutathione. […]

B1: XCL: Xerocomus chrysenteron lectin, fungal sporocarp lectin forming a tetramer with central cavity, SEQ ID NO: 1 (protein)
chain: MSYSITLRVYQTNRDRGYFSIVEKTVWHFANGGTWSEANGAHTLTQGGSGTSGVLRFLSTKGERITVAVGVHNYKRWCDVVTGLKPDETALVINPQYYNNGGRDYVREKQLAEYSVTSAIGTKVEVVYTVAEGNNLEANVIFS
modifications: Xerocomus chrysenteron
As to B1, the “temperature before which no modification of the 346 nm/330 nm Trp fluorescence ratio was observed (lectin remained tetrameric)” value in data set [1] was less than 50 °C. Further, the “temperature beyond which the protein precipitates out (visual analysis after heating)” value in data set [1] (precipitates in tetrameric form) is greater than 45 °C. Also, in data set [2], the “FRET between FITC- and RITC-labelled protein after mixing (monomer redistribution)” value is given as “monomers have been redistributed”. Moreover, the “concentration of the transition in energy transfer intensity (I580/I520)” value in data set [3] (1 hour at ambient temperature) is given as “close to the micromolar”. Moreover, the “maximum protein concentration (solubility limit and labelling protocol)” value in data set [3] (labelled XCL in FRET experiment) was no more than 10 µM. Besides, the “concentration of the transition in elution volume” value in data set [4] is “close to the micromolar”. In addition, the “oligomeric form on SDS-PAGE” value in data set [5] is recorded as “remained in tetrameric form”.

(Values after patent publication US20150182631A1, “SYSTEM FOR […]-BASED ACTIVE INGREDIENTS” (Centre National De La Recherche Scientifique-CNRS, priority 2012, published 2015).)
